# Source: US20080221057A1, “SECRETED PROTEIN CCDC80 REGULATES ADIPOCYTE DIFFERENTIATION” (Wyeth, priority 2007, published 2008)
# Columns and labels:
# Format in all cases: cell-based, mouse
# Ccdc80 mRNA [1] = test: Ccdc80 mRNA expression in growth-arrested 3T3-L1 cells treated with adipogenic inducers, real-time PCR; conditions: growth-arrested 3T3-L1 cells treated with one or more adipogenic inducers for 96 hr
# Procedure: RNA from undifferentiated and differentiated 3T3-L1 adipocytes, tissues from normal, 8- to 12-week-old male C57BL/6J mice, as well as tissues from 10-week-old male ob/ob and age-matched wild-type control mice, was obtained as described (Lake et al., J. Lipid Res 46:2477-2487, 2005). For thiazolidinedione (TZD) treatment, 10-week-old male ob/ob mice were gavaged once per day with 15 mg/kg rosiglitazone or vehicle for 21 days. Primary adipocytes and stromal vascular fraction were prepared from the epididymal adipose tissue of 8- to 12-week-old male C57BL/6J mice as described (Lake et al., J. Lipid Res 46:2477-2487, 2005). Total RNA was extracted using Trizol (Invitrogen) and purified using the RNeasy kit (Qiagen). RNA from human tissues was obtained from Clontech (Mountain View, Calif.). […] Biol. Chem. 281:27167-27177, 2006). Gene expression was also measured by real-time PCR. (n=3-6 mice per group)*p<0.05. Taqman real-time quantitative PCR was performed on a 7900HT fast real-time PCR system (Applied Biosystems) according to the manufacturer's instructions using 18S as an endogenous control as described before (Lake et al., J. Lipid Res 46:2477-2487, 2005). Pre-designed gene-specific primers and probes were obtained from Applied Biosystems. […] Neutral lipid accumulation in formalin-fixed adipocytes was determined by oil red O staining according to methods well known in the art.
# 3T3-L1 cells [2] = test: 3T3-L1 adipocyte differentiation, lipid accumulation by oil red O staining; conditions: data not shown
# Procedure: 3T3-L1 cells were maintained in DMEM containing 20% calf serum in an atmosphere of 10% CO2 at 37° C. Two days post-confluence, cells were induced to differentiate into adipocyte using DMEM containing 10% FBS supplemented with 500 μM 3-isobutyl-1-methylxanthine, 1 μM dexamethasone and 1.7 μM insulin for 4 days, followed by DMEM containing 10% FBS and 0.85 μM insulin for 2 days, then DMEM containing only 10% FBS for an additional 2-4 days. Neutral lipid accumulation in formalin-fixed adipocytes was determined by oil red O staining according to methods well known in the art.
# 3T3-L1 cells [3] = test: Proliferation of 3T3-L1 pre-adipocytes; conditions: stable retroviral expression in 3T3-L1 cells
# [4] = test system: TCF-mediated transcriptional activity; test: TOPFLASH luciferase reporter assay in 3T3-L1 cells; conditions: vs non-silencing shRNA
# Procedure: HepG2 cells were seeded at a density of 8×10^4 cells per well in 24-well plates and grown for 24 hr in antibiotic-free DMEM containing 10% FBS. Cells were transfected with 0.8 μg TOPFLASH and 0.2 μg β-galactosidase reporter plasmids using Lipofectamine 2000 (Invitrogen), rinsed with PBS 4 hr later and infected with adenovirus encoding either GFP or Ccdc80 in opti-MEM. Serum (final concentration: 10% FBS) was added to each well 2 hr after infection and cells were collected 24 hr later. 3T3-L1 cells were seeded at a density of 2.5×10^5 cells per well in 24-well plates. Cells were transfected with 1 μg TOPFLASH and 0.2 μg β-galactosidase reporter plasmids using Fugene 6 and grown in DMEM containing 20% calf serum until 2 days post-confluency. Cells were collected prior to and 24, 48 and 96 hr after induction of differentiation with insulin, 3-isobutyl-1-methylxanthine and dexamethasone as described above. Luciferase and β-galactosidase activities were measured according to manufacturer's instructions (Promega). Luciferase value was normalized to β-galactosidase activity.
# 3T3-L1 cells [5] = test: mRNA expression of genes involved in adipogenesis, metabolism and signaling in 3T3-L1 cells (microarray, real-time PCR)
# Procedure: (§1) RNA from undifferentiated and differentiated 3T3-L1 adipocytes, tissues from normal, 8- to 12-week-old male C57BL/6J mice, as well as tissues from 10-week-old male ob/ob and age-matched wild-type control mice, was obtained as described (Lake et al., J. Lipid Res 46:2477-2487, 2005). For thiazolidinedione (TZD) treatment, 10-week-old male ob/ob mice were gavaged once per day with 15 mg/kg rosiglitazone or vehicle for 21 days. Primary adipocytes and stromal vascular fraction were prepared from the epididymal adipose tissue of 8- to 12-week-old male C57BL/6J mice as described (Lake et al., J. Lipid Res 46:2477-2487, 2005). Total RNA was extracted using Trizol (Invitrogen) and purified using the RNeasy kit (Qiagen). RNA from human tissues was obtained from Clontech (Mountain View, Calif.). Gene expression profiling was performed using the Mouse Genome 430 2.0 array (Affymetrix) as previously described (Berasi et al., J. Biol. Chem. 281:27167-27177, 2006). Gene expression was also measured by real-time PCR. (n=3-6 mice per group)*p<0.05. Taqman real-time quantitative PCR was performed on a 7900HT fast real-time PCR system (Applied Biosystems) according to the manufacturer's instructions using 18S as an endogenous control as described before (Lake et al., J. Lipid Res 46:2477-2487, 2005). Pre-designed gene-specific primers and probes were obtained from Applied Biosystems. Data shown in FIGS. 1A-E and 1G, FIG. 3 B-D, FIG. 4D, FIG. 5A, C, D, FIG. 6, and FIG. 7A are obtained by real-time PCR; data shown in FIG. 1F, and FIG. 4C are derived from microarray analysis.
# [6] = test system: Wnt/β-catenin signaling pathway; test: Wnt/β-catenin pathway gene expression in 3T3-L1 cells, real-time PCR low-density array
# Procedure: as §1
# Akt and ERK = test: Insulin stimulation and immunoblot analysis of Akt and ERK phosphorylation in 3T3-L1 cells; conditions: Ccdc80-KD cells
# Procedure: Differentiated 3T3-L1 adipocytes were deprived of serum for 2 hr before stimulation with 10 nM insulin for 10 min. Cells were rinsed twice in ice-cold PBS and lysed as previously described (Tremblay and Marette, J. Biol. Chem. 276:38052-38060, 2001). Equal amounts of proteins were separated on 4-12% SDS-PAGE and transferred to nitrocellulose membranes. Phosphorylation of Akt (Ser473) and ERK-½ (Thr202/Tyr204) was determined using phospho-specific antibodies (Cell Signaling Technologies).
# Ccdc80 mRNA [7] = test: Silencing of Ccdc80 by RNA interference in stable 3T3-L1 cell lines, Ccdc80 mRNA by real-time PCR; conditions: stable 3T3-L1 line, vs non-silencing shRNA
# Procedure: RNA from undifferentiated and differentiated 3T3-L1 adipocytes, tissues from normal, 8- to 12-week-old male C57BL/6J mice, as well as tissues from 10-week-old male ob/ob and age-matched wild-type control mice, was obtained as described (Lake et al., J. Lipid Res 46:2477-2487, 2005). For thiazolidinedione (TZD) treatment, 10-week-old male ob/ob mice were gavaged once per day with 15 mg/kg rosiglitazone or vehicle for 21 days. Primary adipocytes and stromal vascular fraction were prepared from the epididymal adipose tissue of 8- to 12-week-old male C57BL/6J mice as described (Lake et al., J. Lipid Res 46:2477-2487, 2005). Total RNA was extracted using Trizol (Invitrogen) and purified using the RNeasy kit (Qiagen). RNA from human tissues was obtained from Clontech (Mountain View, Calif.). Gene expression profiling was performed using the Mouse Genome 430 2.0 array (Affymetrix) as previously described (Berasi et al., J. Biol. Chem. 281:27167-27177, 2006). Gene expression was also measured by real-time PCR. (n=3-6 mice per group)*p<0.05. Taqman real-time quantitative PCR was performed on a 7900HT fast real-time PCR system (Applied Biosystems) according to the manufacturer's instructions using 18S as an endogenous control as described before (Lake et al., J. Lipid Res 46:2477-2487, 2005). Pre-designed gene-specific primers and probes were obtained from Applied Biosystems. […]
# Ccdc80 = test: Secretion of Ccdc80 from 3T3-L1 cells, western blot of conditioned medium; conditions: growth-arrested and terminally differentiated 3T3-L1, vs non-silencing shRNA
# Procedure: The Ccdc80-FLAG containing expression vector (pSMED2-Ccdc80-FLAG), as well as a control vector (pSMED2) were transfected into HEK293 T cells. In particular, HEK293T were seeded at a density of 2×10^6 cells in 10-cm Petri dishes. Cells were transfected with pSmed2 or pSmed2-Ccdc80-FLAG using Fugene6 (Roche). Two days after transfection, cells were placed in serum-free DMEM and medium was collected 24 hr later. Endogenous secretion of Ccdc80 was evaluated in 3T3-L1 preadipocytes and fully differentiated adipocytes. 3T3-L1 cells were rinsed twice with PBS and incubated in serum-free DMEM for 48 hrs before medium was collected. Conditioned media were analyzed by 4-10% SDS-PAGE followed by silver staining or immunological detection with anti-FLAG M2 (293T) or anti-Ccdc80 (3T3-L1) antibodies.
# [8] = Ccdc80-KD cells, end of differentiation, microarray
molecule,measurement,setting,value
"CC(C)Cn1c(=O)n(C)c(=O)c2[nH]cnc21 [IBMX, 3-isobutyl-1-methylxanthine]",Ccdc80 mRNA levels,Ccdc80 mRNA [1],significantly reduce
N#CC(=C(/N)Sc1ccccc1N)/C(C#N)=C(\N)Sc1ccccc1N [U0126],reversal of inhibited adipogenesis phenotype,"3T3-L1 cells [2]; Ccdc80-KD cells, 1 or 10 μM",no reversal of phenotype
same,adipogenesis of control cells,"3T3-L1 cells [2]; control cells, treatment during clonal expansion",inhibited adipogenesis
insulin,Ccdc80 mRNA levels,Ccdc80 mRNA [1],significantly reduce
"Ccdc80 shRNA: short hairpin RNA against mouse Ccdc80 (position 2015-2037), encoded by SEQ ID NO: 3, expressed from a retroviral vector (nucleic acid) UGCUGUUGACAGUGAGCGCCCUGAGAAGGAGAAGAAGAAAUAGUGAAGCCACAGAUGUAUUUCUUCUUCUCCUUCUCAGGUUGCCUACUGCCUCGGA",proliferation of pre-adipocyte,3T3-L1 cells [3],increased
same,ability to differentiate into adipocytes (oil red O staining),"3T3-L1 cells [2]; knockdown cell line, end of the differentiation protocol",reduced oil red O staining
same,TOPFLASH activity,[4]; growth arrest (T=0),similar
same,TOPFLASH activity,"[4]; throughout clonal expansion (24, 48 and 96 hr after induction)",significantly more elevated
same,expression of GLUT1,3T3-L1 cells [5]; Ccdc80-KD cells,unchanged
same,expression of GLUT4,3T3-L1 cells [5]; Ccdc80-KD cells,decreased
same,expression of C/EBPα and PPARγ,3T3-L1 cells [5]; [8],significantly decreased
same,expression of KLF5 and TCF4,3T3-L1 cells [5]; [8],significantly increased
same,"expression of genes involved in lipid metabolism (aP2, CD36, DGAT1/2, LIPIN1, LPL and SCD1/2)",3T3-L1 cells [5]; [8],impaired
same,"magnitude of induction of aP2, C/EBPα and PPARγ during clonal expansion","3T3-L1 cells [5]; Ccdc80-KD cells, real-time PCR, maintained throughout terminal differentiation",severely attenuated
same,expression of common mediators of the insulin signaling pathway,3T3-L1 cells [5]; control vs knockdown cells,no obvious difference
same,repression of Cyclin D1 mRNA levels by adipogenic inducers during clonal expansion,"[6]; 3T3-L1, change from growth arrest to clonal expansion, adenovirus at MOI 2000",severely compromised
same,"expression of β-catenin signaling mediators (APC, β-catenin, Dvl-1, Frizzled-1, GSK3 A, LRP5/6 and Wnt10b)",[6]; Ccdc80-KD cells during differentiation,Only very little changes
same,TCF4 mRNA levels,"[6]; Ccdc80-KD cells, after terminal differentiation",increased
same,expression of LEF1,"[6]; Ccdc80-KD cells, following clonal expansion",down-regulation
same,insulin-stimulated phosphorylation of Akt and ERK1/2,Akt and ERK; 10 nM insulin for 10 min,unaffected
same,basal phosphorylation of ERK1/2,Akt and ERK; no insulin,elevated
same,reduction of the expression of Ccdc80,Ccdc80 mRNA [7],40-50%
same,secretion of Ccdc80 protein,Ccdc80,markedly blunted the secretion
